Reference: the DeepSol protein solubility set

Experiment: soluble on expression in E. coli; label from the status in PepcDB or PDB records

Soluble on expression in E. coli, not soluble:
MGSDKIHHHHHHMADFQGETEMTAEVFDPRALRDAFGAFATGVTVVTASDAAGKPIGFTANSFTSVSLDPPLLLVCLAKSSRNYESMTSAGRFAINVLSETQKDVSNTFARPVEDRFAAVDWRLGRDGCPIFSDVAAWFECSMQDIIEAGDHVIIIGRVTAFENSGLNGLGYARGGYFTPRLAGKAVSAAVEGEIRLGAVLEQQGAVFLAGNETLSLPNCTVEGGDPARTLAAYLEQLTGLNVTIGFLYSVYEDKSDGRQNIVYHALASDGAPRQGRFLRPAELAAAKFSSSATADIINRFVLESSIGNFGIYFGDETGGTVHPIANKDAHS
MGSDKIHHHHHHMADRASEAELIKLPVSKLTRGMFVAAIENNGKVAVANAGQIKSRETIAKLVKSGIHHVWVDAERSSDESGLKPKSAQGSAAPAAGAVRPSRANRDLRQTQAKKLLHEAKELIRKVLSETFEGKAIEVKPFEALADNMIESIMLDDDALKCVSALRDKDAYLLEHSVNVAFLLVTFGKYLKLDRETLKQMAVGGVLHDIGKIKVDNKILHKPGKLTPEEFEHMKLHQFYAMDIMSEASALSQISKDVCLMHHEKLDGRGYPRGLKGDEIPLHGRMSCIVDIFDALTATRCYKEAMSPAAAFKILLSLTPFHLDTDLVYEFIRCIGVYPVGSLVELSDGRVGIVWESKDRDALSPVVKCFYSLKHKRYTEVNFVDLLKSDLNIERGVSPSSLDVDPKPFY
MGSDKIHHHHHHMADRMQWANALSTRPSLEAAVTDVVQRAVSTLTAPADLGLVFISSAFASEYSRVLPLLAEQLSVPVMIGCSGGGVIGTAASGQTQELEAEAALSLTLAHLPGVNLQVFHVLGEELPDLDSPPDTWINLIGVPPSPTPHFILLSSAFSSGINDLLQGLDFAYPGSVILGGQASVGGMGGRLALFCNGSLHREGTVGLALSGNIVLEPIVAQGCRPIGEPLQVTKAERNIILELDEKVPLVVLRDLIASLSEKERALAQHSLFVGVAMDEFKLSLQQGDFLIRSILGVDPSGGAIAIGDLVRPGQRLQFHLRDSQASAEELEFLLERYQTKPEFDNSAVGALMFSCVGRGEGLYGKPNFDSELFKRYIQDVPVGGFFCGGEIGPVGGRTFLHGYTSVFGICRELSVED
MGSDKIHHHHHHMAEDLTPEGGDRAPSKDGSVPAYAGRQSADPGWEWGKIRGDFWKHRNEKPLYSIDGSNVDKYAEQLTPGQVQLVKQKKGYRMDVYPSHRECQASDFVAQNSKANLTGAKLDSTGEQLQTAILPGVPFPQPKNGAEAMLNYLMRYRGEGIEWPSVVTTVSPRPGSSDWIDAISTATQYFPASKQGKRTPHDVDQLSSATFFKMESPPALAGQAFVQRQFFNKDPETFYYFPGQRRVRRMPAYTHDAPAIGFENQYLIDEANMFFGAIDRFDWKLAGKKEMIVPYNAFGMYKFNDKLHDVVTPDGIAAANRRYEMHRVWVVEATLKPSARHVASKKVFYLDEDSWLALVANDYDAQGKLWRVRESYPIPVWELGGACDNEPFAQYDLINGRYVTDQSTIGQGKDIRWYEKTNDPRFKPDFFTSESLRSVSER
MGSDKIHHHHHHMAENFLTQDEVDALLNFENGSKHQQTAQKENEVSYPGGVRPYNMATQERIVRGRMPALEIINARFANSLQIGLYNFLRRGVDISAGSIKTIKYSEFTRSLVVPANINLVSMKPLRGTALFTIDPNLIFLIVDNMFGGDGRFHTRVEGREFTLTEQGIIRRLLDVLFEHYEKAWQSVYPVKFEYIRAEMNPQFANIVTPTDIVVASAFELNLGGNRGEFYTCIPYTMLEPIRDLLNNSMQEDRAEVDKNWIKSLTRQVQGAEIEIIANLGQTQVTLHQILNMQEGDVIALDIPDTVVAIANNVPIMDCHYGILNGHYALKVKTVRSPNETD
MGSDKIHHHHHHMAEPSGLLKKGEKMDSMLCTKRTLLSDEFQHWARLFMKTGKLHRKFWEWCFIAQALKEHDMLAPGRIGLGFGVGEEPLSSCFASFGASILATDLDLQNSSVAGWTKTSQHADNKGKLNKLGICPGWEFENLVEFEFANMNSIPKRYTGKFDFVWSSCSLEHLGSIEKGVTFILNSINCLKPGGVAVHTTEFNVSPNSDTIETGPTVLFRRKEIEDIIERVRSFGCRAHINWDHGDLPEDYYIDIPPYSHNPHLKLRISKYVVTSIGLVISK
MGSDKIHHHHHHMAFRVILIENEVTIKVKLNNLIITKCGEDIWIPLDDISMIVLDNLASNLSTRLMCQLAEQGIGLMLYNQQHLPTGFYSAYDNHSRASKVIGFQIDKEQDYYGKLWQQIVKIKIENQAKAYQIMTRDSDGPEKIIEFSKNILIGDKSNREAHAAKVYFNLLMGTSFSRGNEDILLNSGLDYGYAVIRGYIARACVGYGLNTQIGIHHKSEYNRFNLVDDLMEPLRPIVDIVAYNSMKNDKYFTPEHRRKLVSILNMKIMYREKKMYMCNMIENYIEQYASLIMKRTDNIVFPDVYNLIGEEYG
MGSDKIHHHHHHMAGYNTYVVGKWHVGTKSVPEDYGIKGHNFDGYGYPGSGVYKNLVFNQPPTHSNRYKEWLEEKGYEIPEVSRAYFGDNPHLRVQELCGLLSGAKDQTIPYFIIDEAKKYIQESLDEGKPFFAWINFWGPHTPCIVPEPYYSMYRKEDVVLDKSFFTPLEGKPDHFRTISKMWGMWEASEDHWKEVITKFWGYITLIEDDNLVYLHDLTSTVFDLANQKVPESFEGQSVLPIMRQHQDNQRKGVLGQLAGHFVYFEQRMWRRKDYKLVFNATDVCELYNIRNDPEEMHNLFYDPQYNRIKKEMLEEMRAEMKRLNDPLENWVYRIIDEI
MGSDKIHHHHHHMAIGLSTYAFFWRASSRVPNPLGLAAMLEQTAESGAGVFQICDYAAVEALSPAELEKLRQRAVDLGIQLELGTRGLATDHLTRYLTMARALDVRFIRTMFNSATHKPTQDEALALLRCVLPEFEQYNIQLGLETYEQVKTRDVLAVVDAIDSPALGICLDPGNCVAALEYPHEVIELTASRVVNLHIKDFAFARQEGWVGFTYSGCLLGTGLLDYDALHQTIRPNERNINQIVEHWLPWQASAEETCRLEDAWTRHSLNYLYTRNPYANRSSHIL
MGSDKIHHHHHHMAILERKIIHEIDTSCSHIIYPQFVLPRHKHAEYEIMLFTQGSGKQFVGEGVADFQEGDIALIGSNVPHLHLCNSKLNPVANTVCSAGEALQFLPDIFPVHIENLPDYQEIYRLLRKSQYGVRFYDKGLYDEVKELFQEMDLLKHTNRLITILRILGRLTECRNIKLLSDVAYNGSNRLLEVNEPVNKVYTYLFNHFKEKVLLQEVADYVKQNPSALCRYFKQRTDKSIFQCLAEIRIEHACKLLSYSNLSVSQIAFESGFNSVPYFIKQFQSITEKTPGEYRELIGR
MGSDKIHHHHHHMAKERALTLEALRVMDAIDRRGSFAAAADELGRVPSALSYTMQKLEEELDVVLFDRSGHRTKFTNVGRMLLERGRVLLEAADKLTTDAEALARGWETHLTIVTEALVPTPAFFPLIDKLAAKANTQLAIITEVLAGAWERLEQGRADIVIAPDMHFRSSSEINSRKLYTLMNVYVAAPDHPIHQEPEPLSEVTRVKYRGIAVADTARERPVLTVQLLDKQPRLTVSTIEDKRQALLAGLGVATMPYPMVEKDIAEGRLRVVSPESTSEIDIIMAWRRDSMGEAKSWCLREIPKLFNGK
MGSDKIHHHHHHMAKGNKIPLTFHTYQDAATGTEVVRLTPPDVICHRNYFYQKCFFNDGSKLLFGAAFDGPWNYYLLDLKEQNATQLTEGKGDNTFGGFLSPNDDALYYVKNTRNLMRVDLTTLEEKTIYQVPDDWVGYGTWVANSDCTKMVGIEIKKEDWKPLTDWKKFQEFYFTNPCCRLIRVDLVTGEAETILQENQWLGHPIYRPGDDNTVAFCHEGPHDLVDARMWFINEDGTNMRKVKEHAEGESCTHEFWVPDGSAMIYVSYLKDDTNRYIRSIDPVTLEDRQLRVMPPCSHLMSNYDGTLLVGDGSDAPVDVQDDGGYKIENDPFLYVFNLKTGKEHRIAQHNTSWEVLEGDRQVTHPHPSFTPDNKQVLFTSDVDGKPALYLAKVPDSVWN
MGSDKIHHHHHHMAKHPLVMALAKVIIAAAWADGELSLDEVNDLKRLLAELGQTGGQFALTADDWAELEIYLYSPVEAAERARLIADLRDLIITPGQQQLVLQAIERLLIADRVLTPVEREVAQEIQRALTQDSQSLLFQIGRAFRLALGIRAGGPNREDLLPEFMRNRIYYALQIRLGQHIDEFGLDRDELHVLTLAGGLLARVAYVDKQVTPAEHDRIVAILKEWWQLDDTQAALVAEVALDESAASLDFFRLTKAFADATTVERRQRFLDALFAVALADGELSGAESAEISRITAAINLPHDSFVAARLRLPRQPGKRL
MGSDKIHHHHHHMAKIKHGFSGQRLIVYPFYVIEQALNNPLVADLVVHSMGYFPKAESHYIDRASGCGEYLLIYCTKGEGWYVLDGKRYVVPENHFFILPAEKPHQYGSSEHDPWYIYWAHFKGKKAKYISDQLQGVIPIDMDDNSRIGDRIAFFDELLNVLESGTDEATVNYVNLSFNHLIASFLYVKTYREAKFSKSKAENTFFISLATHFMTENLENKLTLKELASHFGYSESYMYRLFFKETGYAPMNYFLHMKIDRACQLLLHTNMKINQVALKLGFDDPYYFSRIFKKIVGTSPKDYRHSLPK
MGSDKIHHHHHHMAKVRKEDKLPLRMKQLGKIYRLIEQFEEISRIDLSKLSQLAPATITSLTRELIEKKLVIERAVQNTENRGRPAVGLCVSPFYWQSLCATLTYDHFDILLCELDGTTIAQEVYPLDLSDLSSLEQMLPCYFEDFLSKVGTKLSRPITFSIAVAGKLHHLSGFLQRLGEIELNVDLTSLFAGYFDIPIIVTEYFETWLLAESTLGSVIGYDDVIFLQIDDVINLSVLSKGVILQSDHKTCMNIDQIIVPRLYPMQDKINQHLFELERYQIHNQLTYKAFCQFIDLYYPNNNLINTTEKINFLCKKAQLQDPLALEILANIADIIAYILSNLVNLFSPEKIMFTSRLLSVKHVFLNQINQRLAHYLHNSKICEVMTSQYEWNSHEVIAAAIKQKIYDGSLLVYMEKY
MGSDKIHHHHHHMALDQDGIQKVQKISTGIERLDDLFYGGFDRNDNVVVRGNNFSQKRSFIYSFIKKSANSGIGVVLVDFDFPSEGIMADLVRSGTNTDMVHILDGFAKPFQISAPSNTEMLDDPGNIPSVLKQITSTVQKMDEYVFVMLSATRYLIAKDQNTDRFFVQLINMNRKRSLVSIYAVDDFVPEDRSEWFAYLMDSALHFRNAGARAYLRVLTLKRIRTKEWVRIYPEEGTFTLGSFNVERIK
MGSDKIHHHHHHMALEDKDLRSIQEVRNLIESANKAQKELAAMSQQQIDTIVKAIADAGYDAREKLAKMAHEETGFGIWQDKVIKNVFASKHVYNYIKDMKTIGMLKEDNEKKVMEVAVPLGVVAGLIPSTNPTSTVIYKTLISIKAGNSIVFSPHPNALKAILETVRIISEAAEKAGCPKGAISCMTVPTIQGTDQLMKHKDTAVILATGGSAMVKAAYSSGTPAIGVGPGNGPAFIERSANIPRAVKHILDSKTFDNGTICASEQSVVVERVNKEAVIAEFRKQGAHFLSDAEAVQLGKFILRPNGSMNPAIVGKSVQHIANLAGLTVPADARVLIAEETKVGAKIPYSREKLAPILAFYTAETWQEACELSMDILYHEGAGHTLIIHSEDKEIIREFALKKPVSRLLVNTPGALGGIGATTNLVPALTLGCGAVGGSSSSDNIGPENLFNIRRIATGVLELEDIRKEENQATPELSVDADALIQSLVEKVLAELK
MGSDKIHHHHHHMALGHRVKEAREFRSLKQGELAELIGWTQQALSTLENRDSKKSSYSAQISKALDIDIDWLISGAGEMINTKKEAKSAKKLIKYVPVKGSAQMGDNGFWSELDYMGAGGDGYLEVNNASDSAYVIRAVGDSMFPAIRSGWYIVFDPSREACSGEYVHIVLKDGRNMVKEYVSCQHGIVNLISVNGMERISFNCEDVDVLNPFVEIQPPSRLRDDLDLFDTKCEEM
